Assay results as given in paper PMC5912448.

Biological target: human β-Klotho extracellular domain (aa 1–992) His6 (human) (UniProt Q86Z14)
Test: BLI; Octet RED; biotinylated β-Klotho ECD His6 (10 μg/ml) loaded onto streptavidin biosensors; analyte at various concentrations in kinetics buffer, 5 min association, 10 min dissociation; globally fitted 1:1 binding model

Chain of UniProt Q86Z14 (Q86Z14 1-992): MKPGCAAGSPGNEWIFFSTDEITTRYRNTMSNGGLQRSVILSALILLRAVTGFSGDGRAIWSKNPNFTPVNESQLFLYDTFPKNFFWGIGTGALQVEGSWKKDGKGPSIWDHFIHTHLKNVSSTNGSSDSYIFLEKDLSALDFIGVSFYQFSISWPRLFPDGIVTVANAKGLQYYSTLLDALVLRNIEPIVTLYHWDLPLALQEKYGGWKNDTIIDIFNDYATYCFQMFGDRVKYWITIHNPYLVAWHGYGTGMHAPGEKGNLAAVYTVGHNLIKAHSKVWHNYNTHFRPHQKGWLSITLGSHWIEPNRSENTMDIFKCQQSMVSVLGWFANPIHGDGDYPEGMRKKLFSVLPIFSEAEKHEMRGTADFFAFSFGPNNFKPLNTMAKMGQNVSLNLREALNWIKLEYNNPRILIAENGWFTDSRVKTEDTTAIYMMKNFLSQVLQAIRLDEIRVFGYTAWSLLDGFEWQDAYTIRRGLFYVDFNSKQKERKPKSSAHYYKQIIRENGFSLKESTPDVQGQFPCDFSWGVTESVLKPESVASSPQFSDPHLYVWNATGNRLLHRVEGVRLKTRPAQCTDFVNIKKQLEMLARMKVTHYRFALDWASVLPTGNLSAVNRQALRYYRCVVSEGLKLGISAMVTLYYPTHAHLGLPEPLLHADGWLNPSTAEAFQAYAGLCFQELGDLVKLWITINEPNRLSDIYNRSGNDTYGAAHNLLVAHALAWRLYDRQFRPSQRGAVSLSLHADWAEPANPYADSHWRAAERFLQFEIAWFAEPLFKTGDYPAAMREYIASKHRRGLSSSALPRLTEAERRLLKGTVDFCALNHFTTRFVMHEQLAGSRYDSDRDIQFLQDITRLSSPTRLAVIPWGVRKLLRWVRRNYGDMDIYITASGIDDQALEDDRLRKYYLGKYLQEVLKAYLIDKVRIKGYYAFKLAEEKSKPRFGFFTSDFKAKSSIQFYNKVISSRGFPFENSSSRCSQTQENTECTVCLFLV

Kd: 3.55 nM
Substance: fibroblast growth factor 21 (ligand)
